From article PMC10540216, “Activity Guided Azide-methyllysine Photo-trapping for Substrate Profiling of Lysine Demethylases” (Journal of the American Chemical Society, 2023)

B1: ATX2L_HUMAN (protein, UniProt Q8WWM7 1-1075, looked up)
Ataxin-2-like protein: MLKPQPLQQPSQPQQPPPTQQAVARRPPGGTSPPNGGLPGPLATSAAPPGPPAAASPCLGPVAAAGSGLRRGAEGILAPQPPPPQQHQERPGAAAIGSARGQSTGKGPPQSPVFEGVYNNSRMLHFLTAVVGSTCDVKVKNGTTYEGIFKTLSSKFELAVDAVHRKASEPAGGPRREDIVDTMVFKPSDVMLVHFRNVDFNYATKDKFTDSAIAMNSKVNGEHKEKVLQRWEGGDSNSDDYDLESDMSNGWDPNEMFKFNEENYGVKTTYDSSLSSYTVPLEKDNSEEFRQRELRAAQLAREIESSPQYRLRIAMENDDGRTEEEKHSAVQRQGSGRESPSLASREGKYIPLPQRVREGPRGGVRCSSSRGGRPGLSSLPPRGPHHLDNSSPGPGSEARGINGGPSRMSPKAQRPLRGAKTLSSPSNRPSGETSVPPPPAVGRMYPPRSPKSAAPAPISASCPEPPIGSAVPTSSASIPVTSSVSDPGVGSISPASPKISLAPTDVKELSTKEPGRTLEPQELARIAGKVPGLQNEQKRFQLEELRKFGAQFKLQPSSSPENSLDPFPPRILKEEPKGKEKEVDGLLTSEPMGSPVSSKTESVSDKEDKPPLAPSGGTEGPEQPPPPCPSQTGSPPVGLIKGEDKDEGPVAEQVKKSTLNPNAKEFNPTKPLLSVNKSTSTPTSPGPRTHSTPSIPVLTAGQSGLYSPQYISYIPQIHMGPAVQAPQMYPYPVSNSVPGQQGKYRGAKGSLPPQRSDQHQPASAPPMMQAAAAAGPPLVAATPYSSYIPYNPQQFPGQPAMMQPMAHYPSQPVFAPMLQSNPRMLTSGSHPQAIVSSSTPQYPSAEQPTPQALYATVHQSYPHHATQLHAHQPQPATTPTGSQPQSQHAAPSPVQHQAGQAPHLGSGQPQQNLYHPGALTGTPPSLPPGPSAQSPQSSFPQPAAVYAIHHQQLPHGFTNMAHVTQAHVQTGITAAPPPHPGAPHPPQVMLLHPPQSHGGPPQGAVPQSGVPALSASTPSPYPYIGHPQGEQPGQAPGFPGGADDRIREFSLAGGIWHGRAEGLQVGQDARVLGGE
B2: NCKP1_HUMAN (protein, UniProt Q9Y2A7 2-1128, looked up)
Nck-associated protein 1: SRSVLQPSQQKLAEKLTILNDRGVGMLTRLYNIKKACGDPKAKPSYLIDKNLESAVKFIVRKFPAVETRNNNQQLAQLQKEKSEILKNLALYYFTFVDVMEFKDHVCELLNTIDVCQVFFDITVNFDLTKNYLDLIITYTTLMILLSRIEERKAIIGLYNYAHEMTHGASDREYPRLGQMIVDYENPLKKMMEEFVPHSKSLSDALISLQMVYPRRNLSADQWRNAQLLSLISAPSTMLNPAQSDTMPCEYLSLDAMEKWIIFGFILCHGILNTDATALNLWKLALQSSSCLSLFRDEVFHIHKAAEDLFVNIRGYNKRINDIRECKEAAVSHAGSMHRERRKFLRSALKELATVLSDQPGLLGPKALFVFMALSFARDEIIWLLRHADNMPKKSADDFIDKHIAELIFYMEELRAHVRKYGPVMQRYYVQYLSGFDAVVLNELVQNLSVCPEDESIIMSSFVNTMTSLSVKQVEDGEVFDFRGMRLDWFRLQAYTSVSKASLGLADHRELGKMMNTIIFHTKMVDSLVEMLVETSDLSIFCFYSRAFEKMFQQCLELPSQSRYSIAFPLLCTHFMSCTHELCPEERHHIGDRSLSLCNMFLDEMAKQARNLITDICTEQCTLSDQLLPKHCAKTISQAVNKKSKKQTGKKGEPEREKPGVESMRKNRLVVTNLDKLHTALSELCFSINYVPNMVVWEHTFTPREYLTSHLEIRFTKSIVGMTMYNQATQEIAKPSELLTSVRAYMTVLQSIENYVQIDITRVFNNVLLQQTQHLDSHGEPTITSLYTNWYLETLLRQVSNGHIAYFPAMKAFVNLPTENELTFNAEEYSDISEMRSLSELLGPYGMKFLSESLMWHISSQVAELKKLVVENVDVLTQMRTSFDKPDQMAALFKRLSSVDSVLKRMTIIGVILSFRSLAQEALRDVLSYHIPFLVSSIEDFKDHIPRETDMKVAMNVYELSSAAGLPCEIDPALVVALSSQKSENISPEEEYKIACLLMVFVAVSLPTLASNVMSQYSPAIEGHCNNIHCLAKAINQIAAALFTIHKGSIEDRLKEFLALASSSLLKIGQETDKTTTRNRESVYLLLDMIVQESPFLTMDLLESCFPYVLLRNAYHAVYKQSVTSSA
B3: RBM33_HUMAN (protein, UniProt Q96EV2 2-1170, looked up)
RNA-binding protein 33: AAALGASGGAGAGDDDFDQFDKPGAERSWRRRAADEDWDSELEDDLLGEDLLSGKKNQSDLSDEELNDDLLQSDNEDEENFSSQGVTISLNATSGMVTSFELSDNTNDQSGEQESEYEQEQGEDELVYHKSDGSELYTQEYPEEGQYEGHEAELTEDQIEYVEEPEEEQLYTDEVLDIEINEPLDEFTGGMETLELQKDIKEESDEEEEDDEESGRLRFKTERKEGTIIRLSDVTRERRNIPETLELSAEAKAALLEFEERERQHKQGRYSSRRGGRRGGPLMCRGVGDQRRESTERGRMKDHRPALLPTQPPVVPQAPPPPPPPPQQQPIRSLFQPQPLQPLLPVQHPHHPSPPQGMHMPPQLETPRMMMTPPPVTPQQPKNIHINPHFKGTVVTPVQVPLLPVPSQPRPAVGPQRFPGPPEFPQHTPGPVPNSFSQPPRLPLQDQWRAPPPPQDRDPFFLGVSGEPRFPSHLFLEQRSPPPPPPPPTLLNSSHPVPTQSPLPFTQPGPAFNQQGQQPVFPRERPVRPALQPPGPVGILHFSQPGSATTRPFIPPRQPFLPGPGQPFLPTHTQPNLQGPLHPPLPPPHQPQPQQPQQQPPPQHQPPHQPPHQPPPQHQPPPQHPPQHPPQHQHHHHHHHLSVPPPPLMPMSQPQFRPHVQTAQPQASSSRMQCPQRQGLRHNTTSQNVSKRPMQQMQPTAPRNSNLRELPIAPSHVIEMSSSRCSATPSAQVKPIVSASPPSRAVAGSRSSQGKTEVKVKPASPVAQPKEEAKTETEFPDEDEETRLYRLKIEEQKRLREEILKQKELRRQQQAGARKKELLERLAQQQQQLYAPPPPAEQEEQALSPSPTNGNPLLPFPGAQVRQNVKNRLLVKNQDVSISNVQPKTSNFVPSSANMQYQGQQMKALKHLRQTRTVPQSQTQPLHKVLPIKPADVEEPAVPQTPRVASIQGRPQDTKPGVKRTVTHRTNSGGGDGPHISSKVRVIKLSGGGGESDGFFHPEGQPQRLPQPPEVGPQPARKVTLTRGGLQQPPHLPAGPHAHSPVPPGIKSIQGIHPAKKAIMHGRGRGVAGPMGRGRLMPNKQNLRVVECKPQPCVVSVEGLSSSTTDAQLKSLLMSVGPIQSLQMLPQQRKAIAKFKEPAHALAFQQKFHRHMIDLSHINVALIVE
B4: KRT85_HUMAN (protein, UniProt P78386 1-507, looked up)
Keratin, type II cuticular Hb5: MSCRSYRISSGCGVTRNFSSCSAVAPKTGNRCCISAAPYRGVSCYRGLTGFGSRSLCNLGSCGPRIAVGGFRAGSCGRSFGYRSGGVCGPSPPCITTVSVNESLLTPLNLEIDPNAQCVKQEEKEQIKSLNSRFAAFIDKVRFLEQQNKLLETKWQFYQNQRCCESNLEPLFSGYIETLRREAECVEADSGRLASELNHVQEVLEGYKKKYEEEVALRATAENEFVVLKKDVDCAYLRKSDLEANVEALVEESSFLRRLYEEEIRVLQAHISDTSVIVKMDNSRDLNMDCIIAEIKAQYDDVASRSRAEAESWYRSKCEEMKATVIRHGETLRRTKEEINELNRMIQRLTAEIENAKCQRAKLEAAVAEAEQQGEAALSDARCKLAELEGALQKAKQDMACLLKEYQEVMNSKLGLDIEIATYRRLLEGEEHRLCEGVGSVNVCVSSSRGGVSCGGLSYSTTPGRQITSGPSAIGGSITVVAPDSCAPCQPRSSSFSCGSSRSVRFA
B5: AMOT_HUMAN (protein, UniProt Q4VCS5 1-1084, looked up)
Angiomotin: MRNSEEQPSGGTTVLQRLLQEQLRYGNPSENRSLLAIHQQATGNGPPFPSGSGNPGPQSDVLSPQDHHQQLVAHAARQEPQGQEIQSENLIMEKQLSPRMQNNEELPTYEEAKVQSQYFRGQQHASVGAAFYVTGVTNQKMRTEGRPSVQRLNPGKMHQDEGLRDLKQGHVRSLSERLMQMSLATSGVKAHPPVTSAPLSPPQPNDLYKNPTSSSEFYKAQGPLPNQHSLKGMEHRGPPPEYPFKGMPPQSVVCKPQEPGHFYSEHRLNQPGRTEGQLMRYQHPPEYGAARPAQDISLPLSARNSQPHSPTSSLTSGGSLPLLQSPPSTRLSPARHPLVPNQGDHSAHLPRPQQHFLPNQAHQGDHYRLSQPGLSQQQQQQQQQHHHHHHHQQQQQQQPQQQPGEAYSAMPRAQPSSASYQPVPADPFAIVSRAQQMVEILSDENRNLRQELEGCYEKVARLQKVETEIQRVSEAYENLVKSSSKREALEKAMRNKLEGEIRRMHDFNRDLRERLETANKQLAEKEYEGSEDTRKTISQLFAKNKESQREKEKLEAELATARSTNEDQRRHIEIRDQALSNAQAKVVKLEEELKKKQVYVDKVEKMQQALVQLQAACEKREQLEHRLRTRLERELESLRIQQRQGNCQPTNVSEYNAAALMELLREKEERILALEADMTKWEQKYLEENVMRHFALDAAATVAAQRDTTVISHSPNTSYDTALEARIQKEEEEILMANKRCLDMEGRIKTLHAQIIEKDAMIKVLQQRSRKEPSKTEQLSCMRPAKSLMSISNAGSGLLSHSSTLTGSPIMEEKRDDKSWKGSLGILLGGDYRAEYVPSTPSPVPPSTPLLSAHSKTGSRDCSTQTERGTESNKTAAVAPISVPAPVAAAATAAAITATAATITTTMVAAAPVAVAAAAAPAAAAAPSPATAAATAAAVSPAAAGQIPAAASVASAAAVAPSAAAAAAVQVAPAAPAPVPAPALVPVPAPAAAQASAPAQTQAPTSAPAVAPTPAPTPTPAVAQAEVPASPATGPGPHRLSIPSLTCNPDKTDGPVFHSNTLERKTPIQILGQEPDAEMVEYLI

What follows are molecules tested on KDM4A-I71AzF (assay: CASI: photo-crosslinking with HEK293T cell extracts, StrepTactin enrichment and LC-MS/MS proteomics). Settings: sheet "Final results but with 0.01".
Assay type: binding, human
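Note: lysates from HEK293T cells pretreated with a KDM4 inhibitor to raise proteome methylation, affinity-purified after ±UV, gel-resolved, trypsin-digested, with exclusive unique peptides per protein averaged per condition.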

Molecule | Fold change (+UV/-UV)
B1 | 0
B2 | 0.6
B3 | 0.3333
B4 | 3
B5 | 1.125
